Experimental data as given in US20250282887A1 (Amgen, published 2025).

T1: human MAGEB16 (human, UniProt A2A368 1-324)
T1 construct: whole, on cells; FFPE cell pellets
T1 sequence (looked up): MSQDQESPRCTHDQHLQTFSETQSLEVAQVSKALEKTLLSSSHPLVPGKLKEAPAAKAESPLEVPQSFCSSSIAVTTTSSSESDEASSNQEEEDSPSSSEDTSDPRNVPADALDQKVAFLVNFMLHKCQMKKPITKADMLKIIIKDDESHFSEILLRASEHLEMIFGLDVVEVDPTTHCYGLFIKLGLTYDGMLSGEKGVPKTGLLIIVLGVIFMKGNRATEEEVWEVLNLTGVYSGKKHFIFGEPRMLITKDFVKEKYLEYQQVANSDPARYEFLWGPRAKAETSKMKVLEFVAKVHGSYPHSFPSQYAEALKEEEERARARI

T2: human MAGEB5 (human, UniProt Q9BZ81 1-275)
T2 construct: whole, on cells; Transfected into CHO cells with Myc/DDK tags; also called CHO-MAGEB5+ cells
T2 sequence (looked up): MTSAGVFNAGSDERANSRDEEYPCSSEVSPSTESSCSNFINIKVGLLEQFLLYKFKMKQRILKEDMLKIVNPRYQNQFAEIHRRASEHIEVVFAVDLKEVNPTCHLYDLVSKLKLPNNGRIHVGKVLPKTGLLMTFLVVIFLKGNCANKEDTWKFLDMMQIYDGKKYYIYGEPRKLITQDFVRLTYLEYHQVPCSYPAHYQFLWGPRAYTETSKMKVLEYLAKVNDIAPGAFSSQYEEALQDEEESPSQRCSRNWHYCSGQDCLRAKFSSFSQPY


Experiments:
human MAGEB16 = target: T1, human MAGEB16; experiment: IHC, FFPE CHO cells transfected with human MAGEB16
Description: (§1) Negative control cells included parental Chinese hamster ovary (CHO) cells, CHO cells stably transfected with mCherry Vector Control (minus Myc/DDK tags), CHO cells stably transfected with mCherry-human DCAF4L2 (plus Myc/DDK tags). The cross-reactivity control cells included CHO cells transfected with mCherry Vector Control (plus Myc/DDK tags) with one of the human MAGE-B or MAGE-A family members (MAGEA1, MAGEA2, MAGEA3, MAGEA4, MAGEA5, MAGEA6, MAGEA8, MAGEA9, MAGEA11, MAGEA12, MAGEB1, MAGEB3, MAGEB4, MAGEB5, MAGEB6, MAGEB10, MAGEB16, MAGEB17, MAGEB18). Positive control cell lines included CHO cells transfected with mCherry Vector (plus Myc/DDK tags) with human MAGE-B2 or CHO cells transfected with mCherry Vector (open reading frame (ORF); minus Myc/DDK tags) with human MAGEB2, and thirteen human cancer cell lines with known endogenous RNA expression level of MAGEB2 (U266B1, T98G, KMM-1, U20S, CFPAC-1, SCaBER, UACC-257, CFPAC-1, VMRC-LCD, NCI-H1703, UM-UC-3, NCI-H1395, NCIH82).
(§2) FFPE samples were sectioned at 4 μm and mounted on positive charged glass slides. After mounting, paraffin sections were air-dried at room temperature. FFPE TMA samples were received as freshly sectioned and mounted on glass slides. The fully automated IHC assay was performed on a Discovery Ultra Stainer (Ventana Medical Systems, Tucson, AZ) using Ventana Anti-Rabbit HQ (cat #760-4815), Ventana Anti-HQ HRP (cat #760-4820), and Ventana Antibody Diluent with Casein (cat #760-219) (Ventana Medical Systems, Tucson, AZ). The slides were baked on the Discovery Ultra Stainer at 60° C. for 8 minutes, de-paraffinized with Ventana Discovery wash (cat #950-510) for 3 cycles (8 minutes each) at 69° C., and underwent cell conditioning (target retrieval) at 95° C. for 16 minutes (for cell arrays) or 32 minutes (tissues or TMAs) in CC1 buffer (cat #950-500). Following this, slides were incubated with Background Sniper (cat #BS966M, Biocare Medical, Pacheco, CA) in a Ventana Option Prep kit (cat #771-751) for 28 minutes, incubated with CM inhibitor (a part of the Ventana DAB kit cat #760-159) for 12 minutes, and incubated for 1 h at RT with MAGE-B2 antibody diluted with Ventana diluent with Casein in a Ventana Prep kit (cat #770-001) (working concentration at 0.1 μg/ml for cell pellet, or 1-5 ug/ml for tissues) or with a matched concentration of isotype control Rabbit IgG1 antibody.

human MAGEB5 = target: T2, human MAGEB5; experiment: IHC, FFPE CHO cells transfected with human MAGEB5
Description: as §1, §2

human MAGEA2 = target: T3, human MAGEA2 (human, UniProt P43356 1-314); experiment: IHC, FFPE CHO cells transfected with human MAGEA2
T3 construct: whole, on cells; FFPE cell pellets
T3 sequence (P43356 whole entry): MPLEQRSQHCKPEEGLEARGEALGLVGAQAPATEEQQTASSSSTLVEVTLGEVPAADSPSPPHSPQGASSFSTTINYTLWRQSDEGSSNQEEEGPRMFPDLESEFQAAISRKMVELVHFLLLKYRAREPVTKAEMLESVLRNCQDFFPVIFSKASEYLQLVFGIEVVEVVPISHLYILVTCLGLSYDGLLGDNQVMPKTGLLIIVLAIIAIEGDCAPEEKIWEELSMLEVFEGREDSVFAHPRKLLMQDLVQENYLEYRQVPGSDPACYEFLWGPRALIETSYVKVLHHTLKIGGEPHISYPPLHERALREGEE
Procedure: as §2, with “antibody. Following this, slides were incubated with the Ventana Anti-Rabbit HQ (cat #760-4815) for 28 minutes at RT, Ventana Anti-HQ HRP (cat #760-4820) for 28 minutes at RT, and signals detected with Ventana DAB chromogen kit (cat #760-159) for 5 minutes at RT. Slides were counterstained with Ventana Hematoxylin II (cat #5266726001) for 8 minutes and Ventana Bluing reagent (cat #526676900) for 4 minutes. Slides were coverslipped and digitized using an Aperio AT2 scanner (Leica Biosystems Inc, Buffalo Grove, IL).” for “antibody.”

binding result (human MAGEB16)	binding result (human MAGEB5)	binding result (human MAGEA2)	Binder
no binding (tested: 0.1 µg/ml)	no binding (tested: 0.1 µg/ml)	no binding (tested: 0.1 µg/ml)	1I14 (antibody, V domains shown, also called MAGE-B2 (1i14)) VH: QSVEESGGRLVTPGTPLTLTCTISGFSLSSYAMSWVRQAPGKGLEWIGSIGGGGSAVYASWAKGRFTISKTSTTVDLRITSPTTEDTAMYFCGRGFYSIDLWGPGTLVTVSS VL: DVVMTQTPASVEATVGGTVTIKCQSSQSVYDNNALAWYQQNAGQRPRLLIYGASTLASGVPSRFSASGSGTEFTLTISDLECADAATYYCQCTYYVSSYQNDFGGGTEVVVKG
no binding (tested: 0.1 µg/ml)	no binding (tested: 0.1 µg/ml)	no binding (tested: 0.1 µg/ml)	1C3 (antibody, V domains shown, also called MAGE-B2 (IC3); anti-MAGEB2 antibody 1C3) VH: QSLEESGGGLVQPEGSLTLTCTAFGVTLTNYYICWVRQAPGKGLEWVGCIDNANGRTYYASWAKGRFTISKTSSTTGTLQMTSLTAADTATYFCARSLATPLWGPGTLVTVSS VL: DIVMTQTPSSVEAAVGGTVTIKCQASQNISSYLAWYQQKPGQPPKLLIYRASTLASGVPSRFKGSGSGTQFTLTISDLECADAATYYCQSYDDSRSSNFFYAFGGGTEVVVKG
no binding (tested: 0.1 µg/ml)	no binding (tested: 0.1 µg/ml)	no binding (tested: 0.1 µg/ml)	4G17 (antibody, IgG1, V domains shown, Rabbit monoclonal IgG1; Tested as supernatant and as small batch purified antibody; also called MAGE-B2 (4G17); anti-MAGEB2 antibody 4G17) VH: QSLEESGGGLVQPEGSLTLTCTASGVTLSNYYICWVRQAPGKGLEWIGCIDNVNGRTYYASWAKGRFTISKTSSTTGTLQMTSLTAADTATYFCARSLATPLWGPGTLVTVSS VL: DIVMTQTPASVEAAVGGTVTIKCQASQNIDSYLAWYQQKPGQPPKLLIYRASTLASGVPSRFKGSGSGTEFTLTISDLECADAATYYCQSYDDSRSSSFFYGFGGGTEVVVK
no binding (tested: 0.1 µg/ml)	no binding (tested: 0.1 µg/ml)	no binding (tested: 0.1 µg/ml)	1J15 (antibody, IgG1, V domains shown, Rabbit monoclonal IgG1; Tested as supernatant and as small batch purified antibody; also called MAGE-B2 (IJ15); anti-MAGEB2 antibody 1J15) VH: QSLEESGGGLVQPEGSLTLTCTAFGFTLNNYYICWVRQAPGKGLEWIACIDNANGRTYYASWAKGRFTISKTSSTTVTLQMTSLTAADTATYFCARSLSTPLWGPGTLVTVSS VL: DIVMTQTPASVEAAVGGTVTIKCQASQSISSYLSWYQQKPGQPPKLLIYRASTLASGVPSRFRGSGSGTQFTLTISDLECADAATYYCQSYDDSSDNNFFYGFGGGTEVVVR
